Reference: the DeepSol protein solubility set

Assay: soluble on expression in E. coli; label from the status in PepcDB or PDB records

In the case of “MGSDKIHHHHHHMDEALRTYIRVVELQSFTKAAEELHISQPAVSLQLKKLEEIYETELIYRQAKKFILTATGEILYHRAKQLEGLYKQVEDEISLYHHHLKGRLRIGASFTIGEYFLPEVIAKFHALYPDITIELIIENTAKIADKVELLQVDTGLIEGQVSKKDLEISAFSDDEMCIVGRADGSLTEIEQGATWIAREEGSGTREYLDHVLSTNGWNVAEKVVAWSNMAVKQMVLEGMGYTVISKCVVQTEITSGKLQTFNEAGSLMRKFSVLKNRQRLENRIAETFLTFLKENQ”, the “soluble on expression in E. coli” value is reported as “not soluble”.
For “EEILGSLFLKKKKKKKKKKSRNHRYFALLLPIRKMKKFFDSRREQGGSGLGSGSSGGGGSTSGLGSGYIGRVFGIGRQQVTVDEVLAEGGFAIVFLVRTSNGMKCALKRMFVNNEHDLQVCKREIQIMRDLSGHKNIVGYIDSSINNVSSGDVWEVLILMDFCRGGQVVNLMNQRLQTGFTENEVLQIFCDTCEAVARLHQCKTPIIHRDLKVENILLHDRGHYVLCDFGSATNKFQNPQTEGVNAVEDEIKKYTTLSYRAPEMVNLYSGKIITTKADIWALGCLLYKLCYFTLPFGESQVAICDGNFTIPDNSRYSQDMHCLIRYMLEPDPDKRPDIYQVSYFSFKLLKKECPIPNVQNSPIPAKLPEPVKASEAAAKKTQPKARLTDPIPTTETSIAPRQRPKAGQTQPNPGILPIQPALTPRKRATVQPPPQAAGSSNQPGLLASVPQPKPQAPPSQPLPQTQAKQPQAPPTPQQTPSTQAQGLPAQAQATPQHQQQLFLKQQQQQQQPPPAQQQPAGTFYQQQQAQTQQFQAVHPATQQPAIAQFPVVSQGGSQQQLMQNFYQQQQQQQQQQQQQQLATALHQQQLMTQQAALQQKPTMAAGQQPQPQPAAAPQPAPAQEPAIQAPVRQQPKVQTTPPPAVQGQKVGSLTPPSSPKTQRAGHRRILSDVTHSAVFGVPASKSTQLLQAAAAEASLNKSKSATTTPSGSPRTSQQNVYNPSEGSTWNPFDDDNFSKLTAEELLNKDFAKLGEGKHPEKLGGSAESLIPGFQSTQGDAFATTSFSAGTAEKRKGGQTVDSGLPLLSVSDPFIPLQVPDAPEKLIEGLKSPDTSLLLPDLLPMTDPFGSTSDAVIGKVIISVSSVMHDMCACFKNDKYLVNQSLGNSPATPEAKAI”, the “soluble on expression in E. coli” value was “soluble”.
For “MGKALVIVESPAKAKTINKYLGSDYVVKSSVGHIRDLPTSGSAAKKSADSTSTKTAKKPKKDERGALVNRMGVDPWHNWEAHYEVLPGKEKVVSELKQLAEKADHIYLATDLDREGEAIAWHLREVIGGDDARYSRVVFNEITKNAIRQAFNKPGELNIDRVNAQQARRFMDRVVGYMVSPLLWKKIARGLSAGRVQSVAVRLVVEREREIKAFVPEEFWEVDASTTTPSGEALALQVTHQNDKPFRPVNKEQTQAAVSLLEKARYSVLEREDKPTTSKPGAPFITSTLQQAASTRLGFGVKKTMMMAQRLYEAGYITYMRTDSTNLSQDAVNMVRGYISDNFGKKYLPESPNQYASKENSQEAHEAIRPSDVNVMAESLKDMEADAQKLYQLIWRQFVACQMTPAKYDSTTLTVGAGDFRLKARGRILRFDGWTKVMPALRKGDEDRILPAVNKGDALTLVELTPAQHFTKPPARFSEASLVKELEKRGIGRPSTYASIISTIQDRGYVRVENRRFYAEKMGEIVTDRLEENFRELMNYDFTAQMENSLDQVANHEAEWKAVLDHFFSDFTQQLDKAEKDPEEGGMRPNQMVLTSIDCPTCGRKMGIRTASTGVFLGCSGYALPPKERCKTTINLVPENEVLNVLEGEDAETNALRAKRRCPKCGTAMDSYLIDPKRKLHVCGNNPTCDGYEIEEGEFRIKGYDGPIVECEKCGSEMHLKMGRFGKYMACTNEECKNTRKILRNGEVAPPKEDPVPLPELPCEKSDAYFVLRDGAAGVFLAANTFPKSRETRAPLVEELYRFRDRLPEKLRYLADAPQQDPEGNKTMVRFSRKTKQQYVSSEKDGKATGWSAFYVDGKWVEGKK”, the “soluble on expression in E. coli” value was “soluble”.
For “MKFPKDFMIGYSSSPFQFEAGIPGSEDPNSDWWVWVHDPENTAAGLVSGDFPENGPGYWNLNQNDHDLAEKLGVNTIRVGVEWSRIFPKPTFNVKVPVERDENGSIVHVDVDDKAVERLDELANKEAVNHYVEMYKDWVERGRKLILNLYHWPLPLWLHNPIMVRRMGPDRAPSGWLNEESVVEFAKYAAYIAWKMGELPVMWSTMNEPNVVYEQGYMFVKGGFPPGYLSLEAADKARRNMIQAHARAYDNIKRFSKKPVGLIYAFQWFELLEGPAEVFDKFKSSKLYYFTDIVSKGSSIINVEYRRDLANRLDWLGVNYYSRLVYKIVDDKPIILHGYGFLCTPGGISPAENPCSDFGWEVYPEGLYLLLKELYNRYGVDLIVTENGVSDSRDALRPAYLVSHVYSVWKAANEGIPVKGYLHWSLTDNYEWAQGFRQKFGLVMVDFKTKKRYLRPSALVFREIATHNGIPDELQHLTLIQ”, the “soluble on expression in E. coli” value was “soluble”.
For “MGSDKIHHHHHHMRSNNNNPLTRDEILSRYFPQYRPAVATSQGLSGGSCIIAHDTHRVVLRRHHDPDAPPAHFLRHYRALSQLPASLAPRALFYTPGWMAVEYLHGVVNSALPDADELAALLYHLHQQPRFGWRIALSPLLAQYWSCCDPARRTPFWLRRLKQLQKNGEPRPLRLAPLHMDVHGDNIVLTSAGLRLIDWEYAGDGDIALELAAVWVEDERQHRQLADAYAARARIDARQLWRQIRLWHPWVIMLKAGWFEYRWRQTGEQQFIRLADETWRQLRMKG”, the “soluble on expression in E. coli” value was “not soluble”.
For “MGSDKIHHHHHHMPSTFESQLFFSRPFLSKRQIQRAQKNTISDYRNYNQKKLAVFKFLSDLCVQLKFPRKTLETAVYFYQRYHLFNRFETEVCYTVATSCLTLGCKEVETIKKTNDICTLSLRLRNVVKINTDILENFKKRVFQIELRILESCSFDYRVNNYVHIDEYVIKIGRELSFDYKLCNLAWVIAYDALKLETILVIPQHSIALAILKIAYELLDNKNWSSKRYSLFETDEKSVNEAYFDIVNFYINSFDMCDLQRHLPADLLPIGVERFMELKKNAGPESGLPQIPDHLLNADPYITITRDNNVQERRYVLSLELINGESSINSSTRHA”, the “soluble on expression in E. coli” value was “not soluble”.
In the case of “MAHHHHHHMGTLEAQTQGPGSMTAASSSAPTLGIIRLEHAKGLDLPAYETAGSAGMDLRAAVAEDRQIVLLPGRRTLVPTGLILEIPQGYEVQIRPRSGLAFKNGITCLNTPGTIDSDYRGEVKVLLINLGDDDFRIERGMRIAQAVFAPVIQPKIEERAKISETARGAGGFGSTGTA”, the “soluble on expression in E. coli” value is reported as “soluble”.
For “MGSDKIHHHHHHMKGVTLRGLEVFEALSRTGSVAQASTLTGLSQPAVSQQLRNLEQALGTDLVDHGRRPMVLTPAGRAFLPRAETVLSQLRLAQSELTVMDLTHLSTLSMGLIDDFDNDLTPRLATLLADSLTKCRFKLITAPSHEISEAMKARRLHIAVAATSGEVHDGIIEYPLVRDPFILVAPRGVVSKGGDMLASLQGLPLLRYAREQLIGRQIEAHLARQKLDFEERFEIGSHLALMAMVARRLGWAVTTPLGFMRAERFHDEVEAFALPFAAFSRRISLFAGADWADRVPRDVAETMRRLVQSQIIDPAVARLPWLGGELRVIES”, the “soluble on expression in E. coli” value was “not soluble”.
In the case of “MSLRIGIVGVGFSEFRIHEEPFYNVAFLAAKRALEDAGIERGEVDSFILGGYDNLGVGRTISNMYTAPAAGAYLRHEIRVSDDALFALPLAFMKVKSGSEITMLLAFGHSSETPIELVELQSLDPFFHRPFNLSLPVFFAMQSYAYRERYGVKEEKIAEVVVRMREKGAKNPRAYIREKVSVEDVLSSEVVSSPLRRLEMAEWCDGCVAFILAEETVARRLSDSPVWVSGLGWSAENYYFDRSLHDLPFVAKSAEMAFKMSGKERKDVEALEISDLTADYYCMILEALGFAETGRGWEFNGDVNFSGGALCTNAYGSTGAFLLASIVERIRKGEIECGMAQSMSGYAQKSCVAILEGEGHHHHHH”, the “soluble on expression in E. coli” value is reported as “soluble”.
In the case of “MEKFNNIAQLKDSGLKVTGPRLKILDLFETHAEEHLSAEDVYRILLEEGVEIGVATIYRVLTQFEQAGILQRHHFETGKAVYELDKGDHHDHIVCVKCGEVTEFHNPEIEALQDKIAEENGYRIVDHALYMYGVCSDCQAKGKR”, the “soluble on expression in E. coli” value is reported as “not soluble”.
In the case of “MRILAIGDIIGRPGRKALRELLPQLKEEVAYDVVIANVENSAGGFGITKKVYEELLEIGIDVMTSGNHIWDKKEVYNFIGEAYNLLRPANYPEGVPGRGYGIFKKNGVEFAVINLMGKVFMDCNLENPFKTFDRIYDELKDKVKIIVVDFHAEATSEKWAFGIYVDGRASFVYGTHTHVPTADEFILKKGTGYVSDIGMTGVWYSAIGMKPKEAIERFLLSLPRRFEVEDKGEIMFNAVLVDIDEETGKTKSIERIKRFL”, the “soluble on expression in E. coli” value is reported as “soluble”.
